# Measurements as given in the nanobody polyreactivity screen of Harvey et al. (2022).
# Test: yeast display, Sf9 membrane polyspecificity reagent, FACS + sequencing; frameworks hold sequencing errors
# Outline: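 Galactose induction of a Saccharomyces cerevisiae BJ5465 synthetic nanobody display library ran 36–48 hours. The cells were then stained for 1 hour at 4 °C with 10% biotinylated, detergent-solubilized Sf9 membrane reagent, pulled down on streptavidin microbeads and FACS-sorted into low and high (top ~1%) gates on expression and reagent-binding fluorescence. Labels for polyreactivity follow the gate of origin.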
row,Sequence,polyreactivity (PSR sort gate)
1,QVQLVESGGGLVHAGGSLRLSCAASGFTFPGYAMGWYRQAPGKERELVAAISRGGAGTYYADSVKGRFTISRDNAKNTVYLQMHSLKPEDTAFYDCAAATDNPSLFQDMYYWGQGTQLTVSS,high polyreactivity
2,QVQLVESGGGLVQAGGSLRLSCAASGRTFRRNAMGWYRQAPGKERELVAAISWRGVSTYYADSVKGRFTISRDNAKNTVYLQMNSLKPEDNALYYCAVDFPYTRRDYWGQGPQVTVSS,high polyreactivity
3,QVQLVESGGGLLQAGGSLRLSCAASGRTFTNSAMGWYRQEPGKERELVAGISSSGGRTYYAVSVKGRFTISRDNAMNTVYLQMNSLKAEDTAVYYCAAQHSRVYRRMDYWGQGTQVSVSS,high polyreactivity
4,QVQLVESGGGLVQAGGSLRLSCAASGSIFPDYAMGWYRTAPGKERELVAAISWDGGRTYYADSVKGRFTISRDNAKNTVYLQMNSLKPEDTAVYYCYWYDYWGQGTQVTVSS,high polyreactivity
5,QVQLQESGGGLLQAGGSLRLSYAASGYMFPYLAMGWYRQAPGKEREFVAAIGRGSTNNYADSVKGRFTISRDNAKNTAFQQMNSLKPEDTAVYYCAAAASPLTRHLYWGQGSQVTVSS,low polyreactivity
6,QFQLVESGGGLVQAGGSLRLSCADSGFIFFSNARPWYRHAPGKDRELVAVIDRATSTYYADSVKGRFTISRDNAKYTVYLQMNSLKPEDTAVYYCNADGEEVYDCNYFLSFKGDYWGQGTQVTVSS,low polyreactivity
7,QVQLVESGGGLVQAGGSLRLSCAASGFTFRYYAMGWYRQAPGKEREWVAGISSRGGSTYYADSVKGRFTISRDNAKNTVYLQMNSLKPEDSAVYYCATERFLLGLGYDYWGQGTQVTVSS,high polyreactivity
8,QVQLVESGGGLVQAGGSLRLSCAASGRTFRSYAMGWYRQAPGKERELVAAIRRGGSTNYADSVKGRFTISRDNAKNTVYLQMNSLKPEDTAVYYCNARQTVRGPTDGRIAVWFDYWGQGTQVTVSS,high polyreactivity
9,QVQLVESGGGLVQAGGSLRLSCAASGSTFFYYAMGLYRQAPGKERELVADITSSGGRTYYADSVKGRFTISRDNAKNTVYLQMNSLKPEDTAVYYCAARDYRQSRYEYWGQGTQVTVSS,high polyreactivity
10,QVQLVESGGGLVQAGGSLRLSCAASGRTFRRNAMGWYRQAPGKERELVAAINSGGSTYYADSVKGRFTISRDNAKNTDYLQMNSLKPEDTAVYYCAASGSKYVQSYSRYDYWGQGTQVTVSS,high polyreactivity
11,QVQLVESGGRLVQAGGSLRLSCAASGRIFGDYAMGRYRQAPGKERDLVAAISWSDGSTYYADSVKGRFTISRDNAKNTVYLQMNSLTPEDTAVYYCPAYGWGYRYVDVVVSDFYYWGQGTQVTVSS,low polyreactivity
12,QVQLVESGGGLVQAGGSLRLRCAASGRTFFVYTMGWYRQAPGKERELVAAITSDTSTTYADSVKGRFTISRDNAKNTVYLQMISLKPEDTAVYYCAAEGYVGYYDYDYWGQGTQVTVSS,low polyreactivity
13,QVQLVESGGGLVQAGGSLRLSCAASGSTFYQNAMGWYRQAPGKERELVAAISIGGGRTYYADSVKGRFTISRDNAKNTVYLQMNSLKPEDTAVYYCAAGPTGRYRREFRFDYLGQGTQVTVSS,low polyreactivity
14,QVQLVESGGGLVQAGGSLRLSCAASGFIFRDNAMGWYRQAPGKERELVAAISERGGRTYYADSVKGRFTISRDNAKNTVYLQMNSLKPEDTAVYYCAAKTIYDTRGIRHYYWGQGTQVTVSS,high polyreactivity
15,QVQLVESVGGLVQAGRSHRLSGAASCFTFTGYALGWYRQAPGKEREFVAAISRGGSTKYADSVMGRFTISRDNAKNTVYLQMNSLKPEDTAVYYCDASPVYGISRYTLGIYNYGGQGTQVTVSS,high polyreactivity
16,QVQLVESGGGLVQAGGSLRLSCAASGHTFAYNAMGWYRQAPGKEREFVAAITWSTDNTYYADSVKGRFTISRDYAKYTVYLQMNSLKPEDTAVYYCAVDVYFYYRHYGYWGQGTQVTVSS,low polyreactivity
17,QVQLVESGGGLVQAGGSLRLSCAAARYAMGWYRPAPGKERELVAAISKSGGSTYYADSVKGRFTISRDNAKNTVYLQMNSLIPEDTAVYYCAARGHAGRGEYYYWGQGTQVTVSS,high polyreactivity
18,QVQLVESGGGLVQAGGSLRLSCAASGSIFLSNARGWYIQAPGKERELVADIDWTRGDTYYADSVKGRFTISRDNAKNTVYLQMNSLKPEDTAVYDCAADYGYRNLLTEYGYWGQGTEVTVSS,low polyreactivity
19,QVQLVESGGGLVQAGGSLRLSCAASGFTYIFYAMGWYRQAPGKERELVAAITWDGDRTYYADSVKGRFTISRDNAKNTVYLQMNSLKPEDTAVYYCNADEGGNYREDYWGQGTQVTVSS,low polyreactivity
20,QVQLVESGGGLVQAGGSLRLSCAASGRIFVTYAMGWYRQAPGKERELVAVISWSGGSTYYADSVKGRFTISRDNAKNTVYLQMNSLKPEDTAVYYCARGLRKVRFDYWGQGTQVTVSS,low polyreactivity
21,QVQLVESGGGLVQAGGSLRLSCAASGIIFDDYAMGWYRQAPGKERELVAAITDSGGSTYYADSVKGRFTISRDNAKNTVYLQMNSLKPEVTAVYYCAARTQRRVNRVGYRSNYYYWGQGTQVTVSS,low polyreactivity
22,QVQLVESGGGLVQAGGSLRLSCAASGLTIWRYALGWYRQAPGKEREFVATISQNGGRTYYADSVKGRFTISRDNAKNTVYVQMNSLKPEDTAVYYCADDDWRWGYDYWGQGTQVTVSS,high polyreactivity

row,Sequence,polyreactivity (PSR sort gate)
1,QVQIVESGGGLVQAGGSLRISCAASGRTFYWNAMGWNREAPGKEMELVSAISDGGGSTYYADSVKGRFSISRDNAKNTVYLQMNSLKPEDTAVYYCNTPDNQDKPYPGYDYWGQGTQVTVSS,low polyreactivity
2,QDQLVETVGVLDKAGGSLRLSCAASGRTFAIYAMAWYRQAPGKEREFVAASSWSGGDSYYADSVKGRFTISRDNAKNSVYLQMNSLKPEHTAVYYCAARDNDYEGRYLQYDLDYWGQGTQVTVST,low polyreactivity
3,QVQLVESGGGLVQAGGSLRLSCAASGRIFRYYAMGWYRQAPGKERELVADIWSDGSTYYADSVKGRFTISRDNAKNTVYLQMNSLKPEDTAVYYCNAARTYYWYSAKFDYWGQGTQVTVSS,high polyreactivity
4,QVQLVESGGGLVQAGGSLLLSCAASGSTFPHYTMGWYSQAPGKEREWVAVISRSGRTYYADSVKGRFTISRDNAKNTVYLQMNSLKPEDTAVYYCAVLVGRLVWSYNHWGQGTQGTVSS,high polyreactivity
5,QVQLVESGGGLVQAGGSLRLSCAASGLTFTYYAMGWYRQAPGKERELVAVISRRGGSTYYADSVKGRFTISRDNAKNTVYLQMNSLKPEDTAVYYCAATNLQSAYDYWGHGTQVTVSS,high polyreactivity
6,QVQLVESGGGLVQAGGSLRLSCAASGRIFQKNAMGWYRQAAGKERELVAAISGSGSTTNYADSVKGRFTISRDNAKNTVYLQMNSLKPEDTAVYYCATGKRGVSGRGYRYVDYDYWGQGTQVTVSS,high polyreactivity
7,QVQLVESWGGLVQAGGSLRLSCAASGRTFSRYAMGWYRQAPRKERELVAAISSRGGSTYYADSVKGRFTISRDFANNTVYLQMNSLYPEDTAVYYCNADSKVDPYGYDYWGQGTQVTVSS,high polyreactivity
8,QVQLVESGGGLVQAGGSLRLSCAASGRIFRYYVMGWNRQAPGKERELVATITSGGSTNYADSVKGRFTISRDNAKNTVYLQMNSLKPEDTAVYYCAAEKVSGQGEMDYWGQGTQVTVSS,low polyreactivity
9,QVQVVESGGGLVQAGGSLRLSCAASGRIFGYNAMGWYRQAPGKERELVAAISSGGSTYYADSVKGRFTISRDNAKNTVYLLMHSLKPEDTAVYYCAAEDYPPYPTVYDYWGQGTQVTVSS,low polyreactivity
10,QVQLVESGGGLVQAGGSLRLSCAASGLTFYYNAMGWYRQAPGKERELVAVIRGSGGSTYYADSVKGRFTISRDNAKNTVYLQMNSLKPEDTAVYYCAARVAASRRYYYWGQGTQVTVSS,high polyreactivity
11,QVQLVESGGGLVQAGGSLRLSCAASGRTLIAYAMGWYRQAPGKEREFVAAIRADDGRTYYADSVKGRFTISRDNAMNTVYLQMNSLKPDDTAVYYCATKADKRYRFGYWGQGTQVTVSS,high polyreactivity
12,QDQLVESGGGLGQAGGSLRLSCAASGSNFRPNAMGWYRQAPGKEMELVASITRNGGSTYYADSVKGRFTISRDNAKNTVYLQMNSLKPEDTAVYYCNAGYYYWGQGTQVTLSS,high polyreactivity
13,QVQLVESGGGLVQAGGSLRLSSAASGSIFTGSALGWYRQAPGKEREFFARITKRGVSTYYADSVKGRFTISRDKAKNTVYLHMNSLKPEDTAVYYCNADRKFPYGSYETHDYWGQGPQVTVSS,high polyreactivity
14,QVQLVESGGGLVQAGGSLRLSCAASGSTFSYNAMGWYRQAPGKERELVAAIRTSGGRTYYADSVKGRFTISRDNAKNTVYLQMNSLKPEDTAVYYCAKRWVYRYGYEYWGQGTQVTVSS,high polyreactivity
15,QVQLVESVGGLVQAGGSLRLSCAASGRIFSTYAMGWYRQAPGKERELVAAIRFSGTSTYADSVKGRFTISRDNAKNTVYLQMNSLKPEDTAVDYCAAQRYTYYRRYGYLGQGTQVTVSS,high polyreactivity
16,QVQLVESGGGLVQAGGSLRLSCAASGSIFYSNTMGWYSQAPGKERELVAAISSSSGRTYYADSVKGRFTISRDNAKNTVYLQMNSLKPEDTAVYYCARRYGWGQGTQVTVSS,high polyreactivity
17,QVQLVESGGGLVQAGGSLRLRCAASGRTFYPYAMGWYRQAPGKERELVAAINWSGTSTYYADSVKGRFTISRDNAKNTVYLQMNSLKPEDTAVYYCAAKQYPVLHYSLTEADMDYWGQGTQVTVSS,low polyreactivity
18,QVQLVESGGGLVQAGGRRRLSCAASGSTLRDYVMGWYRQAPGKERELVAAITGRVDDTYYADSVKGRFTISRDNAKNTVYLQMNSLKPEDTAGYYCAADYSVTLRIGGFYWFYAFDYWGQGSQVTVSS,low polyreactivity
19,QVQLVESGGGLVQAGGSLRLSCAASGSTFGAYAMGWYRQAPGKERELVAVINSDGSTNYADSVKGRFTISRDNAKHTVYLQMNSLKPEDTAVYYCAKDRTSRGGVPRMNYWGQGTQVTVSS,low polyreactivity
20,QVQLVESGGGLVQAGGSLRLSCAASGFTFRVYAMGWYRQAPGKERELVAVISGTGGRTYYADSVKGRFTISRDNAKNTVYLQMNSLKPEDTAVYYCARRGRPPAIYDYWGQGTQVTVSS,high polyreactivity
21,QVQLVESGGGLVQAGGSLRLRCAASGLTFAYNTMGWYRQAPGKEREFVASISSSGGNTYYADSVKGRFTISRDNAKNTVYLQMNSLKPEDTAVYYCAAKKKYHYVASYKRFEYWGQGTQVTVSS,low polyreactivity
